# Assay results from paper doi:10.1101/2021.02.26.432832.
# Molecular target: T1, Ioc4 PWWP domain (Saccharomyces cerevisiae) (UniProt Q04213)
# T1 sequence: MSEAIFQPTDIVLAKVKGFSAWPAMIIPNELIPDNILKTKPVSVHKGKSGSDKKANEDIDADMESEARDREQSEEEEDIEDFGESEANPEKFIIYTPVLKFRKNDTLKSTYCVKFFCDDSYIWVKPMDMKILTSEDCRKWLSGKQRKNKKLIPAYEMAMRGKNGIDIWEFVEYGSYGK
# Experiment: EMSA
# Details: H3K36me3; H3 tail 1-44 ligated to H3T45C; Xenopus laevis histones
substance,measurement,value
NCP H3K36me3,binding signal (fold higher affinity vs dsDNA),6
